T1: 人源IL-4R (human IL-4R), overexpressed on LN229, U251 and HEK293 cells (human, UniProt P24394 26-825)
T1 sequence (looked up): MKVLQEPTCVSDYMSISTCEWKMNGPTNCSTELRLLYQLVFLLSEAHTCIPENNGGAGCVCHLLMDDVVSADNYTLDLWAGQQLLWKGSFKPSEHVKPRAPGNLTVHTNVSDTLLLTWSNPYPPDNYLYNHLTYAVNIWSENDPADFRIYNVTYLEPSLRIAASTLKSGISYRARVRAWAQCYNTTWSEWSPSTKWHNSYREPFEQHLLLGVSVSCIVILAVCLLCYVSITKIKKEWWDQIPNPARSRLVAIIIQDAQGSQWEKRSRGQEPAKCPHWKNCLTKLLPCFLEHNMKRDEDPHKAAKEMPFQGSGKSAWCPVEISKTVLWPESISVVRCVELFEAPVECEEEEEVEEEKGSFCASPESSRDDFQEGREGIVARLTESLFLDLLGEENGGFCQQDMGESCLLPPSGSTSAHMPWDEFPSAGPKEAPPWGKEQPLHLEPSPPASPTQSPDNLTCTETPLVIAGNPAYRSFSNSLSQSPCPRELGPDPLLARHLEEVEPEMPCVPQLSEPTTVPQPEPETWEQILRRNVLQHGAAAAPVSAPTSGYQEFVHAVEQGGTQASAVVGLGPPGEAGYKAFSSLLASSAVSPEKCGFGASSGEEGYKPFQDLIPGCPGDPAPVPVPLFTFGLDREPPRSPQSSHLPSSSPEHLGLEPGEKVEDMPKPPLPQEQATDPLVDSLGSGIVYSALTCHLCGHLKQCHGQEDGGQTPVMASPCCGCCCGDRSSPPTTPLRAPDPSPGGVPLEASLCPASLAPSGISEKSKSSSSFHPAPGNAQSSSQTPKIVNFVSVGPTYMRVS


Target: T1, 人源IL-4R (human IL-4R), overexpressed on …
Assay: cell-based or functional assay

| IC50, 体外毒性 in HEK293-IL4R细胞 | Binder |
| --- | --- |
| 0.458 nM | 25G7-C1, DAR=5.86 (antibody, human IgG1, kappa, V domains shown, 依喜替康类似物 (exatecan analogue) joined through a linker; measured DAR 5.86; attachment residues not stated) VH: EVQLVESGGGLVQPGGSLRLSCAASGFTFSDYGMHWVRQAPGKGLEWVAFISSGSSIIYYADIVKGRSTISRDNAKNTLYLQMNSLRAEDTAVYYCTRGNKRGFFDYWGQGTLVTVSS VL: EIVLTQSPATLSLSPGERATLSCRASSSVPYMYWYQQKPGQAPRLLIYLTSNLASGIPARFSGSGSGTDFTLTISSLEPEDFAVYYCQQWRAYPPMLTFGGGTKVEIKR |
| 3.29 nM | 25G7-C1, DAR=3.52 (antibody, human IgG1, kappa, V domains shown, 依喜替康类似物 (exatecan analogue) joined through a linker; measured DAR 3.52; attachment residues not stated) VH: EVQLVESGGGLVQPGGSLRLSCAASGFTFSDYGMHWVRQAPGKGLEWVAFISSGSSIIYYADIVKGRSTISRDNAKNTLYLQMNSLRAEDTAVYYCTRGNKRGFFDYWGQGTLVTVSS VL: EIVLTQSPATLSLSPGERATLSCRASSSVPYMYWYQQKPGQAPRLLIYLTSNLASGIPARFSGSGSGTDFTLTISSLEPEDFAVYYCQQWRAYPPMLTFGGGTKVEIKR |

Reference: patent CN114652853A (JIANGSU ZHEREI MEDICINE CO LTD; SHANGHAI TENGDI MEDICINE CO …, dated 2022)
